Results on 94 variants are retold here after the supplement of paper PMC10567573.

First the molecules themselves.
B1: FBF1 (parent)
chain: QLQCSPAELQAELLHSQARLAELE
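Note: lentivirally expressed fusions sorted by FACS into six bins by GFP to DsRed ratio, PSI derived from sequencing read proportions per bin multiplied by bin number.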

The variants in this data set derive from B1. As to the kind of experiment: protein stability index of a GFP-peptide fusion (GPS, HEK-293T) (PSI 1-6); higher = more stable. As to conditions: c terminus: a fixed tail appended.
Take QLQCSPAFLQAELLHSQARLAELE [E8F]: the protein stability index is 2.13.
QLQCSPAVLQAELLHSQARLAELE [E8V]: the protein stability index is 2.18.
The result for QLQCSPAGLQAELLHSQARLAELE [E8G] reads 2.76; that for QLQCSPADLQAELLHSQARLAELE [E8D], 2.55; that for QLQCSPAYLQAELLHSQARLAELE [E8Y], 2.25.
As to QLQCSPALLQAELLHSQARLAELE [E8L], the protein stability index came to 2.27.
On to QLQCSPAWLQAELLHSQARLAELE [E8W], for which the protein stability index was 1.79.
The result for QLQCSPACLQAELLHSQARLAELE [E8C] reads 1.72; that for QLQCSPANLQAELLHSQARLAELE [E8N], 2.84; that for QLQCSPARLQAELLHSQARLAELE [E8R], 2.33.
Then QLQCSPAKLQAELLHSQARLAELE [E8K], with 2.79; and QLQCSPATLQAELLHSQARLAELE [E8T], with 2.41; and QLQCSPAMLQAELLHSQARLAELE [E8M], with 2.06.
As for QLQCSPAALQAELLHSQARLAELE [E8A], the protein stability index stood at 1.66.
Take QLQCSPAQLQAELLHSQARLAELE [E8Q]: the protein stability index came to 2.67.
For the variant QLQCSPAILQAELLHSQARLAELE [E8I], the protein stability index stood at 2.28.
For the variant QLQCSPASLQAELLHSQARLAELE [E8S], the protein stability index was found to be 2.17.
The result for QLQCSPAHLQAELLHSQARLAELE [E8H] reads 2.48.
Then QLQCSPAPLQAELLHSQARLAELE [E8P], with 3.86; and QLQCSPAEWQAELLHSQARLAELE [L9W], with 4.52.
For the variant QLQCSPAEDQAELLHSQARLAELE [L9D], the protein stability index stood at 5.05.
On to QLQCSPAECQAELLHSQARLAELE [L9C], for which the protein stability index came out at 3.85.
The result for QLQCSPAEMQAELLHSQARLAELE [L9M] reads 4.3.
Then QLQCSPAESQAELLHSQARLAELE [L9S], with 5.05; and QLQCSPAEYQAELLHSQARLAELE [L9Y], with 4.64.
Consider QLQCSPAETQAELLHSQARLAELE [L9T], for which the protein stability index was determined as 4.45.
QLQCSPAEEQAELLHSQARLAELE [L9E]: the protein stability index amounted to 5.3.
Then QLQCSPAEFQAELLHSQARLAELE [L9F], with 4.1; and QLQCSPAEVQAELLHSQARLAELE [L9V], with 4.4.
For the variant QLQCSPAENQAELLHSQARLAELE [L9N], the protein stability index came out at 4.92.
The result for QLQCSPAEAQAELLHSQARLAELE [L9A] reads 4.79; that for QLQCSPAEPQAELLHSQARLAELE [L9P], 4.79; that for QLQCSPAERQAELLHSQARLAELE [L9R], 4.51.
The result for QLQCSPAEIQAELLHSQARLAELE [L9I] reads 4.14; that for QLQCSPAEGQAELLHSQARLAELE [L9G], 4.96.
For QLQCSPAEHQAELLHSQARLAELE [L9H], the protein stability index stood at 4.18.
The result for QLQCSPAEKQAELLHSQARLAELE [L9K] reads 4.57; that for QLQCSPAEQQAELLHSQARLAELE [L9Q], 4.62.
The result for QLQCSPAELVAELLHSQARLAELE [Q10V] reads 2.56; that for QLQCSPAELHAELLHSQARLAELE [Q10H], 3.1.
Then QLQCSPAELKAELLHSQARLAELE [Q10K], with 3.74.
Take QLQCSPAELPAELLHSQARLAELE [Q10P]: the protein stability index worked out at 4.69.
The result for QLQCSPAELAAELLHSQARLAELE [Q10A] reads 2.93; that for QLQCSPAELIAELLHSQARLAELE [Q10I], 2.04.
Then QLQCSPAELDAELLHSQARLAELE [Q10D], with 5.13; and QLQCSPAELEAELLHSQARLAELE [Q10E], with 3.95; and QLQCSPAELMAELLHSQARLAELE [Q10M], with 2.29.
Turning to QLQCSPAELGAELLHSQARLAELE [Q10G], the protein stability index turned out to be 3.85.
On to QLQCSPAELFAELLHSQARLAELE [Q10F], for which the protein stability index amounted to 1.79.
In the case of QLQCSPAELTAELLHSQARLAELE [Q10T], the protein stability index was determined as 3.91.
Take QLQCSPAELLAELLHSQARLAELE [Q10L]: the protein stability index is 2.17.
Then QLQCSPAELSAELLHSQARLAELE [Q10S], with 3.7.
Then QLQCSPAELCAELLHSQARLAELE [Q10C], with 2.45; and QLQCSPAELWAELLHSQARLAELE [Q10W], with 2.21; and QLQCSPAELNAELLHSQARLAELE [Q10N], with 3.54.
The result for QLQCSPAELRAELLHSQARLAELE [Q10R] reads 2.56; that for QLQCSPAELYAELLHSQARLAELE [Q10Y], 1.89.
Regarding QLQCSPAELQKELLHSQARLAELE [A11K], the protein stability index stood at 3.04.
For QLQCSPAELQTELLHSQARLAELE [A11T], the protein stability index worked out at 3.37.
Turning to QLQCSPAELQQELLHSQARLAELE [A11Q], the protein stability index was 3.28.
The result for QLQCSPAELQHELLHSQARLAELE [A11H] reads 3.38.
For the variant QLQCSPAELQGELLHSQARLAELE [A11G], the protein stability index came to 4.24.
Then QLQCSPAELQCELLHSQARLAELE [A11C], with 3.89.
Then QLQCSPAELQSELLHSQARLAELE [A11S], with 2.77.
Turning to QLQCSPAELQEELLHSQARLAELE [A11E], the protein stability index was determined as 4.26.
As to QLQCSPAELQPELLHSQARLAELE [A11P], the protein stability index is 4.43.
Then QLQCSPAELQNELLHSQARLAELE [A11N], with 3.1; and QLQCSPAELQYELLHSQARLAELE [A11Y], with 2.3.
Turning to QLQCSPAELQVELLHSQARLAELE [A11V], the protein stability index is 2.87.
The result for QLQCSPAELQRELLHSQARLAELE [A11R] reads 2.62; that for QLQCSPAELQWELLHSQARLAELE [A11W], 2.59.
Then QLQCSPAELQMELLHSQARLAELE [A11M], with 2.01.
As for QLQCSPAELQLELLHSQARLAELE [A11L], the protein stability index came out at 1.71.
With QLQCSPAELQIELLHSQARLAELE [A11I], the protein stability index was determined as 2.24.
Take QLQCSPAELQFELLHSQARLAELE [A11F]: the protein stability index stood at 2.41.
The result for QLQCSPAELQDELLHSQARLAELE [A11D] reads 2.94; that for QLQCSPFELQAELLHSQARLAELE [A7F], 2.57.
For the variant QLQCSPRELQAELLHSQARLAELE [A7R], the protein stability index came to 3.06.
Then QLQCSPYELQAELLHSQARLAELE [A7Y], with 1.82; and QLQCSPLELQAELLHSQARLAELE [A7L], with 2.37.
The result for QLQCSPNELQAELLHSQARLAELE [A7N] reads 3.39.
Then QLQCSPMELQAELLHSQARLAELE [A7M], with 2.36; and QLQCSPCELQAELLHSQARLAELE [A7C], with 2.74; and QLQCSPIELQAELLHSQARLAELE [A7I], with 2.94.
In the case of QLQCSPKELQAELLHSQARLAELE [A7K], the protein stability index was 2.9.
QLQCSPWELQAELLHSQARLAELE [A7W]: the protein stability index amounted to 2.92.
Then QLQCSPTELQAELLHSQARLAELE [A7T], with 2.78; and QLQCSPQELQAELLHSQARLAELE [A7Q], with 3.27; and QLQCSPDELQAELLHSQARLAELE [A7D], with 3.66.
Then QLQCSPHELQAELLHSQARLAELE [A7H], with 2.57; and QLQCSPPELQAELLHSQARLAELE [A7P], with 3.79.
The result for QLQCSPEELQAELLHSQARLAELE [A7E] reads 3.4; that for QLQCSPSELQAELLHSQARLAELE [A7S], 3.62; that for QLQCSPVELQAELLHSQARLAELE [A7V], 3.07.
